Data published in paper PMC8033513 (2021).

B1: extra‐cellular domain (ECD) of human UNC5H3 (domain or fragment)
chain: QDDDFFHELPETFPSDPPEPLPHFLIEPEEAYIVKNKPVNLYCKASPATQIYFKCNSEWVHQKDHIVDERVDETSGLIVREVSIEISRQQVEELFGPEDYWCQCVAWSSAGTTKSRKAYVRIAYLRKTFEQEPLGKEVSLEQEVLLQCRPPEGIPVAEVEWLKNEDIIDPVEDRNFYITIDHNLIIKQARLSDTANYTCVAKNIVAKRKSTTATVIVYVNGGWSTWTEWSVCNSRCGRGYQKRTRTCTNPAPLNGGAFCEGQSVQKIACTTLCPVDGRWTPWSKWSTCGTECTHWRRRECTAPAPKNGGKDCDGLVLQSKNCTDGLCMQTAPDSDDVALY
B2: chicken netrin‐2L (netrin‐2‐like) (ligand)
chain: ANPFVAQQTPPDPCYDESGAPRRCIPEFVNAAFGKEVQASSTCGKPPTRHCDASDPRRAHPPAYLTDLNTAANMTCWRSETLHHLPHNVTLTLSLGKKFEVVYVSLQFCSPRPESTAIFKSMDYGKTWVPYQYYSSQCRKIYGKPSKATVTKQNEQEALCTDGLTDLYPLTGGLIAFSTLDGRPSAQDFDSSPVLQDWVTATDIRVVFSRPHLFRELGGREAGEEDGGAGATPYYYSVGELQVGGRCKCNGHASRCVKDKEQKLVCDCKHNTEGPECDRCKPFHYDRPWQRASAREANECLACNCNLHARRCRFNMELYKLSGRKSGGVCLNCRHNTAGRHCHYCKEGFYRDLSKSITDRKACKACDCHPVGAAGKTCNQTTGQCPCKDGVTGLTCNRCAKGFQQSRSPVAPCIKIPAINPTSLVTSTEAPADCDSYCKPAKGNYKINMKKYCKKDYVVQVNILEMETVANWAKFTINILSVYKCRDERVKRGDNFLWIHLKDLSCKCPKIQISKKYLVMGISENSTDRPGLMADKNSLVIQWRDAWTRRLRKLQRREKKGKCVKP
B3: extra‐cellular domain (ECD) of rat UNC5H2 (Fc fusion)
chain: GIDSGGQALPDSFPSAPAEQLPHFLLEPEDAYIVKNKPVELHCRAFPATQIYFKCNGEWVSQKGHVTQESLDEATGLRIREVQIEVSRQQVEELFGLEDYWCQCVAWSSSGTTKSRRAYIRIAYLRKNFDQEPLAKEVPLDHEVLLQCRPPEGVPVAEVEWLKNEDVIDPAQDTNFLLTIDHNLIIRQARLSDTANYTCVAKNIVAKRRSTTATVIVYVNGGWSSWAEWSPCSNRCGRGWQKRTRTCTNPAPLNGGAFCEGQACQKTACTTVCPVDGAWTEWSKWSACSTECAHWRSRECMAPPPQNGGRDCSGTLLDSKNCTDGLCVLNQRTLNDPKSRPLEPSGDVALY
B4: extra‐cellular domain (ECD) of human UNC5H1 (domain or fragment)
chain: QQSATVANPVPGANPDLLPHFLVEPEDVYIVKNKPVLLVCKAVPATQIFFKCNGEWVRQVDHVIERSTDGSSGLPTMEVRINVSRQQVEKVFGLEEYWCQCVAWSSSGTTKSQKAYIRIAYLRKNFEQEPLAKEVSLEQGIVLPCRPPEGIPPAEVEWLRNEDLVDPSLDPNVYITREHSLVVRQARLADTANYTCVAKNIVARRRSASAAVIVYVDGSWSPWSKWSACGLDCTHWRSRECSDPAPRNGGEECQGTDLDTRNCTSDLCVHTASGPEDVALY
B5: extra‐cellular domain (ECD) of mouse Neogenin (Fc fusion)
chain: RPASGAAATKSGSPPQSAGASVRTFTPFYFLVEPVDTLSVRGSSVILNCSAYSEPSPNIEWKKDGTFLNLESDDRRQLLPDGSLFISNVVHSKHNKPDEGFYQCVATVDNLGTIVSRTAKLTVAGLPRFTSQPEPSSVYVGNSAILNCEVNADLVPFVRWEQNRQPLLLDDRIVKLPSGTLVISNATEGDGGLYRCIVESGGPPKFSDEAELKVLQDPEEIVDLVFLMRPSSMMKVTGQSAVLPCVVSGLPAPVVRWMKNEEVLDTESSGRLVLLAGGCLEISDVTEDDAGTYFCIADNGNKTVEAQAELTVQVPPGFLKQPANIYAHESMDIVFECEVTGKPTPTVKWVKNGDVVIPSDYFKIVKEHNLQVLGLVKSDEGFYQCIAENDVGNAQAGAQLIILEHDVAIPTLPPTSLTSATTDHLAPATTGPLPSAPRDVVASLVSTRFIKLTWRTPASDPHGDNLTYSVFYTKEGVARERVENTSQPGEMQVTIQNLMPATVYIFKVMAQNKHGSGESSAPLRVETQPEVQLPGPAPNIRAYATSPTSITVTWETPLSGNGEIQNYKLYYMEKGTDKEQDIDVSSHSYTINGLKKYTEYSFRVVAYNKHGPGVSTQDVAVRTLSDVPSAAPQNLSLEVRNSKSIVIHWQPPSSTTQNGQITGYKIRYRKASRKSDVTETLVTGTQLSQLIEGLDRGTEYNFRVAALTVNGTGPATDWLSAETFESDLDETRVPEVPSSLHVRPLVTSIVVSWTPPENQNIVVRGYAIGYGIGSPHAQTIKVDYKQRYYTIENLDPSSHYVITLKAFNNVGEGIPLYESAVTRPHTDTSEVDLFVINAPYTPVPDPTPMMPPVGVQASILSHDTIRITWADNSLPKHQKITDSRYYTVRWKTNIPANTKYKNANATTLSYLVTGLKPNTLYEFSVMVTKGRRSSTWSMTAHGATFELVPTSPPKDVTVVSKEGKPRTIIVNWQPPSEANGKITGYIIYYSTDVNAEIHDWVIEPVVGNRLTHQIQELTLDTPYYFKIQARNSKGMGPMSEAVQFRTPKADSSDKMPNDQALGSAGKGSRLPDLGSDYKPPMSGSNSPHGSPTSPLDSNML
B6: extra‐cellular domain (ECD) of mouse DCC (Fc fusion)
chain: HLQVTGFQIKPFTSLHFVSEPSDAVTMRGGNVLLNCSAESDRGVPVIKWKKDGLILALGMDDRKQQLPNGSLLIQNILHSRHHKPDEGLYQCEASLADSGSIISRTAKVTVAGPLRFLSQTESITAFMGDTVLLKCEVIGEPMPTIHWQKNQQDLNPLPGDSRVVVLPSGALQISRLQPGDSGVYRCSARNPASIRTGNEAEVRILSDPGLHRQLYFLQRPSNVIAIEGKDAVLECCVSGYPPPSFTWLRGEEVIQLRSKKYSLLGGSNLLISNVTDDDSGTYTCVVTYKNENISASAELTVLVPPWFLNHPSNLYAYESMDIEFECAVSGKPVPTVNWMKNGDVVIPSDYFQIVGGSNLRILGVVKSDEGFYQCVAENEAGNAQSSAQLIVPKPAIPSSSILPSAPRDVLPVLVSSRFVRLSWRPPAEAKGNIQTFTVFFSREGDNRERALNTTQPGSLQLTVGNLKPEAMYTFRVVAYNEWGPGESSQPIKVATQPELQVPGPVENLHAVSTSPTSILITWEPPAYANGPVQGYRLFCTEVSTGKEQNIEVDGLSYKLEGLKKFTEYTLRFLAYNRYGPGVSTDDITVVTLSDVPSAPPQNISLEVVNSRSIKVSWLPPPSGTQNGFITGYKIRHRKTTRRGEMETLEPNNLWYLFTGLEKGSQYSFQVSAMTVNGTGPPSNWYTAETPENDLDESQVPDQPSSLHVRPQTNCIIMSWTPPLNPNIVVRGYIIGYGVGSPYAETVRVDSKQRYYSIERLESSSHYVISLKAFNNAGEGVPLYESATTRSITDPTDPVDYYPLLDDFPTSGPDVSTPMLPPVGVQAVALTHEAVRVSWADNSVPKNQKTSDVRLYTVRWRTSFSASAKYKSEDTTSLSYTATGLKPNTMYEFSVMVTKNRRSSTWSMTAHATTYEAAPTSAPKDLTVITREGKPRAVIVSWQPPLEANGKITAYILFYTLDKNIPIDDWIMETISGDRLTHQIMDLSLDTMYYFRIQARNVKGVGPLSDPILFRTLKVEHPDKMANDQGRHGDGGYWPVDTNLIDRSTLNEPPIGQMHPPHGSVTPQKNSN

Columns and labels:
Assay in all cases: BLI
human netrin‐1 = human netrin‐1 (human, UniProt O95631 25-604)
[1] = target: B4
[2] = target: B3
[3] = target: B5
[4] = target: B6
[5] = target: B1

Row | Kd (human netrin‐1) [nM] | Binder | further results
1 | 5.4 | B1 | 
2 |  | B2 | Kd [1]: 106 nM; Kd [2]: 8.8 nM; Kd [3]: 51.7 nM; Kd [4]: 31 nM; Kd [5]: 4.3 nM
3 | 6.9 | B3 | 
4 | 12.2 | B4 | 
5 | 7.8 | B5 | 
6 | 6.3 | B6 | 
